According to patent publication US20240261333A1, “NOVEL TARGETS FOR ENHANCING ANTI-TUMOR IMMUNITY” (THE BROAD INSTITUTE, INC., priority 2021, published 2024):

T1: B3GNT2 (Homo sapiens, UniProt Q9NY97)
T1 construct: The respective ORFs of candidate genes [CD274 (NM_014143), MCL1 (NM_021960), JUNB (NM_002229), and B3GNT2 (NM_006577)] were synthesized; expressed in transfected cells; host or cells: A375 melanoma cells (lentiviral ORF overexpression)
T1 sequence (Q9NY97 1-397): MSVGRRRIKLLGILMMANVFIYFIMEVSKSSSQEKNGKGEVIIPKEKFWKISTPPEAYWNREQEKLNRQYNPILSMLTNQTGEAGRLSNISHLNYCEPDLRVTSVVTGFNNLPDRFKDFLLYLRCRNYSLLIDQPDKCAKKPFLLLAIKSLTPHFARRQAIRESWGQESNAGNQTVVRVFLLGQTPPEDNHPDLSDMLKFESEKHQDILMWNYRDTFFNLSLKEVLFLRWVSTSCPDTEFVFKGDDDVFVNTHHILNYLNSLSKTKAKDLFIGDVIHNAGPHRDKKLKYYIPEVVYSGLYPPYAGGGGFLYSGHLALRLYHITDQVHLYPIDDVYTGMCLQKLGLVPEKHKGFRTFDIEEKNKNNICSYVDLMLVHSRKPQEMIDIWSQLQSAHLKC


Molecular target: T1, B3GNT2
Test: Co-IP of FLAG-tagged B3GNT2 followed by mass spectrometry
Type: cell-based
Design: C-term IgG / C-term flag: unit not given here
Settings: mass spectrometry count, unit not given; for C-term flag / N-term FLAG: Co-IP with FLAG antibody; for C-term flag / C-term IgG: C-terminally FLAG-tagged B3GNT2; for N-term FLAG / N-term IgG: N-terminally FLAG-tagged B3GNT2; for C-term IgG / N-term IgG: Co-IP with IgG control antibody
Outline: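 Co-purifying proteins were identified by fractionated nano-LC–MS/MS on an Orbitrap Elite, run data-dependent. Beforehand, lysates in 1% Triton X-100/HEPES buffer were incubated overnight at 4° C with anti-FLAG or […] and pulled down on Protein A/G magnetic beads for 4 h. Duplicate biological replicates.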

C-term flag	N-term FLAG	C-term IgG	N-term IgG	Molecule
30	19	3	6	SLC25A5 (protein) TDAAVSFAKDFLAGGVAAAISKTAVAPIERVKLLLQVQHASKQITADKQYKGIIDCVVRIPKEQGVLSFWRGNLANVIRYFPTQALNFAFKDKYKQIFLGGVDKRTQFWLYFAGNLASGGAAGATSLCFVYPLDFARTRLAADVGKAGAEREFRGLGDCLVKIYKSDGIKGLYQGFNVSVQGIIIYRAAYFGIYDTAKGMLPDPKNTHIVISWMIAQTVTAVAGLTSYPFDTVRRRMMMQSGRKGTDIMYTGTLDCWRKIARDEGGKAFFKGAWSNVLRGMGGAFVLVLYDEIKKYT
2	0	0	0	CD70 (protein) MPEEGSGCSVRRRPYGCVLRAALVPLVAGLVICLVVCIQRFAQAQQQLPLESLGWDVAELQLNHTGPQQDPRLYWQGGPALGRSFLHGPELDKGQLRIHRDGIYMVHIQVTLAICSSTTASRHHPTTLAVGICSPASRSISLLRLSFHQGCTIASQRLTPLARGDTLCTNLTGTLLPSRNTDETFFGVQWVRP
6	10	2	0	HSPD1 (protein) AKDVKFGADARALMLQGVDLLADAVAVTMGPKGRTVIIEQSWGSPKVTKDGVTVAKSIDLKDKYKNIGAKLVQDVANNTNEEAGDGTTTATVLARSIAKEGFEKISKGANPVEIRRGVMLAVDAVIAELKKQSKPVTTPEEIAQVATISANGDKEIGNIISDAMKKVGRKGVITVKDGKTLNDELEIIEGMKFDRGYISPYFINTSKGQKCEFQDAYVLLSEKKISSIQSIVPALEIANAHRKPLVIIAEDVDGEALSTLVLNRLKVGLQVVAVKAPGFGDNRKNQLKDMAIATGGAVFGEEGLTLNLEDVQPHDLGKVGEVIVTKDDAMLLKGKGDKAQIEKRIQEIIEQLDVTTSEYEKEKLNERLAKLSDGVAVLKVGGTSDVEVNEKKDRVTDALNATRAAVEEGIVLGGGCALLRCIPALDSLTPANEDQKIGIEIIKRTLKIPAMTIAKNAGVEGSLIVEKIMQSSSEVGYDAMAGDFVNMVEKGIIDPTKVVRTALLDAAGVASLLTTAEVVVTEIPKEEKDPGMGAMGGMGGGMGGGMF
3	4	0	0	SPRR1A (protein) MNSQQQKQPCTPPPQPQQQQVKQPCQPPPQEPCIPKTKEPCHPKVPEPCHPKVPEPCQPKVPEPCQPKVPEPCPSTVTPAPAQQKTKQK
2	0	0	0	CCT7 (protein) MDKLIVDGRGKATISNDGATILKLLDVVHPAAKTLVDIAKSQDAEVGDGTTSVTLLAAEFLKQVKPYVEEGLHPQIIIRAFRTATQLAVNKIKEIAVTVKKADKVEQRKLLEKCAMTALSSKLISQQKAFFAKMVVDAVMMLDDLLQLKMIGIKKVQGGALEDSQLVAGVAFKKTFSYAGFEMQPKKYHNPKIALLNVELELKAEKDNAEIRVHTVEDYQAIVDAEWNILYDKLEKIHHSGAKVVLSKLPIGDVATQYFADRDMFCAGRVPEEDLKRTMMACGGSIQTSVNALSADVLGRCQVFEETQIGGERYNFFTGCPKAKTCTFILRGGAEQFMEETERSLHDAIMIVRRAIKNDSVVAGGGAIEMELSKYLRDYSRTIPGKQQLLIGAYAKALEIIPRQLCDNAGFDATNILNKLRARHAQGGTWYGVDINNEDIADNFEAFVWEPAMVRINALTAASEAACLIVSVDETIKNPRSTVDAPTAAGRGRGRGRPH
4	3	0	0	MSN (protein) PKTISVRVTTMDAELEFAIQPNTTGKQLFDQVVKTIGLREVWFFGLQYQDTKGFSTWLKLNKKVTAQDVRKESPLLFKFRAKFYPEDVSEELIQDITQRLFFLQVKEGILNDDIYCPPETAVLLASYAVQSKYGDFNKEVHKSGYLAGDKLLPQRVLEQHKLNKDQWEERIQVWHEEHRGMLREDAVLEYLKIAQDLEMYGVNYFSIKNKKGSELWLGVDALGLNIYEQNDRLTPKIGFPWSEIRNISFNDKKFVIKPIDKKAPDFVFYAPRLRINKRILALCMGNHELYMRRRKPDTIEVQQMKAQAREEKHQKQMERAMLENEKKKREMAEKEKEKIEREKEELMERLKQIEEQTKKAQQELEEQTRRALELEQERKRAQSEAEKLAKERQEAEEAKEALLQASRDQKKTQEQLALEMAELTARISQLEMARQKKESEAVEWQQKAQMVQEDLEKTRAELKTAMSTPHVAEPAENEQDEQDENGAEASADLRADAMAKDRSEEERTTEAEKNERVQKHLKALTSELANARDESKKTANDMIHAENMRLGRDKYKTLRQIRQGNTKQRIDEFESM
2	0	0	0	MAGT1 (protein) QRKKEMVLSEKVSQLMEWTNKRPVIRMNGDKFRRLVKAPPRNYSVIVMFTALQLHRQCVVCKQADEEFQILANSWRYSSAFTNRIFFAMVDFDEGSDVFQMLNMNSAPTFINFPAKGKPKRGDTYELQVRGFSAEQIARWIADRTDVNIRVIRPPNYAGPLMLGLLLAVIGGLVYLRRSNMEFLFNKTGWAFAALCFVLAMTSGQMWNHIRGPPYAHKNPHTGHVNYIHGSSQAQFVAETHIVLLFNGGVTLGMVLLCEAATSDMDIGKRKIMCVAGIGLVVLFFSWMLSIFRSKYHGYPYSFLMS
2	0	0	0	ARHGEF2 (protein, UniProt Q92974 1-986, looked up) Rho guanine nucleotide …: MSRIESLTRARIDRSRELASKTREKEKMKEAKDARYTNGHLFTTISVSGMTMCYACNKSITAKEALICPTCNVTIHNRCKDTLANCTKVKQKQQKAALLKNNTALQSVSLRSKTTIRERPSSAIYPSDSFRQSLLGSRRGRSSLSLAKSVSTTNIAGHFNDESPLGLRRILSQSTDSLNMRNRTLSVESLIDEAEVIYSELMSDFEMDEKDFAADSWSLAVDSSFLQQHKKEVMKQQDVIYELIQTELHHVRTLKIMTRLFRTGMLEELHLEPGVVQGLFPCVDELSDIHTRFLSQLLERRRQALCPGSTRNFVIHRLGDLLISQFSGPSAEQMCKTYSEFCSRHSKALKLYKELYARDKRFQQFIRKVTRPAVLKRHGVQECILLVTQRITKYPLLISRILQHSHGIEEERQDLTTALGLVKELLSNVDEGIYQLEKGARLQEIYNRMDPRAQTPVPGKGPFGREELLRRKLIHDGCLLWKTATGRFKDVLVLLMTDVLVFLQEKDQKYIFPTLDKPSVVSLQNLIVRDIANQEKGMFLISAAPPEMYEVHTASRDDRSTWIRVIQQSVRTCPSREDFPLIETEDEAYLRRIKMELQQKDRALVELLREKVGLFAEMTHFQAEEDGGSGMALPTLPRGLFRSESLESPRGERLLQDAIREVEGLKDLLVGPGVELLLTPREPALPLEPDSGGNTSPGVTANGEARTFNGSIELCRADSDSSQRDRNGNQLRSPQEEALQRLVNLYGLLHGLQAAVAQQDTLMEARFPEGPERREKLCRANSRDGEAGRAGAAPVAPEKQATELALLQRQHALLQEELRRCRRLGEERATEAGSLEARLRESEQARALLEREAEEARRQLAALGQTEPLPAEAPWARRPVDPRRRSLPAGDALYLSFNPPQPSRGTDRLDLPVTTRSVHRNFEDRERQELGSPEERLQDSSDPDTGSEEEGSSRLSPPHSPRDFTRMQDIPEETESRDGEAVASES
0	2	0	0	MARS (protein) MRLFVSDGVPGCLPVLAAAGRARGRAEVLISTVGPEDCVVPFLTRPKVPVLQLDSGNYLFSTSAICRYFFLLSGWEQDDLTNQWLEWEATELQPALSAALYYLVVQGKKGEDVLGSVRRALTHIDHSLSRQNCPFLAGETESLADIVLWGALYPLLQDPAYLPEELSALHSWFQTLSTQEPCQRAAETVLKQQGVLALRPYLQKQPQPSPAEGRAVTNEPEEEELATLSEEEIAMAVTAWEKGLESLPPLRPQQNPVLPVAGERNVLITSALPYVNNVPHLGNIIGCVLSADVFARYSRLRQWNTLYLCGTDEYGTATETKALEEGLTPQEICDKYHIIHADIYRWFNISFDIFGRTTTPQQTKITQDIFQQLLKRGFVLQDTVEQLRCEHCARFLADRFVEGVCPFCGYEEARGDQCDKCGKLINAVELKKPQCKVCRSCPVVQSSQHLFLDLPKLEKRLEEWLGRTLPGSDWTPNAQFITRSWLRDGLKPRCITRDLKWGTPVPLEGFEDKVFYVWFDATIGYLSITANYTDQWERWWKNPEQVDLYQFMAKDNVPFHSLVFPCSALGAEDNYTLVSHLIATEYLNYEDGKFSKSRGVGVFGDMAQDTGIPADIWRFYLLYIRPEGQDSAFSWTDLLLKNNSELLNNLGNFINRAGMFVSKFFGGYVPEMVLTPDDQRLLAHVTLELQHYHQLLEKVRIRDALRSILTISRHGNQYIQVNEPWKRIKGSEADRQRAGTVTGLAVNIAALLSVMLQPYMPTVSATIQAQLQLPPPACSILLTNFLCTLPAGHQIGTVSPLFQKLENDQIESLRQRFGGGQAKTSPKPAVVETVTTAKPQQIQALMDEVTKQGNIVRELKAQKADKNEVAAEVAKLLDLKKQLAVAEGKPPEAPKGKKKK
